Measurements: patent publication US20240228542A1, “LYTIC DOMAIN FUSION CONSTRUCTS, CHECKPOINT INHIBITORS, AND METHODS OF MAKING AND USING SAME” (A28 Therapeutics Inc., priority 2020, published 2024)

How the values were obtained:
[1] = molecular target: chorionic gonadotrophin (CG) receptor, on MDA-MB-435S.luc cells (human) (UniProt P22888); assay: cell-based or functional assay
[2] = test system: LNCaP; assay: Cytotoxicity in LNCaP prostate cancer cells; format: cell-based; conditions: LNCaP prostate cancer cell line; read-out: IC50 in Human Cancer Cell Lines
Protocol: (§1) MDA-MB-435S.luc cells were grown in Leibovitz's L 15 medium, 10% fetal bovine serum, 0.01 mg/ml bovine insulin, 100 IU/ml penicillin, 100 microg/ml streptomycin. The cells were cultured in tight closed flasks. The incubations were conducted using 96 well plates at 10,000 cells per well. Cells were typically seeded into 96 well plates and media was replaced after 48 hours of incubation. Each assay was conducted at increasing concentrations of 0, 0.001, 0.01, 0.05, 0.1, 0.5, 1, 2, 5, 10 and 100 micromolar doses of lytic peptide-binding domain conjugate. Each lytic peptide-binding domain conjugate provided in lyophilized form and was freshly dissolved in saline and added to cells. The duration of incubation was typically 24 h, and cell viability assays were conducted using formazan conversion assays (MTT assay). Controls contained saline or 0.1% triton as reference for 0 and 100% cell death, respectively.
(§2) To ascertain the IC50 of various fusion constructs on different human cancer cell lines compared to cisplatinum, IC50 of fusion constructs were evaluated as in Table 3.

[3] = test system: AN3-CA; assay: Cytotoxicity in AN3-CA endometrial cancer cells; format: cell-based; conditions: AN3-CA endometrial cancer cell line; read-out: IC50 in Human Cancer Cell Lines
Protocol: as §1, §2

[4] = test system: OVCAR-3 xenograft; assay: OVCAR-3 ovarian cancer xenograft; format: in vivo, Nu/Nu mice; conditions: for tumor volume: OVCAR-3 xenograft, CLIP71 2 mg/kg, cisplatinum 10 mg/kg
Protocol: In brief, Nu/Nu female mice, inbred strain, age 5 weeks (Harlan-Sprague Dawley) were injected subcutaneously with a NIH:OVCAR-3 cells/Matrigel suspension (4.6×10^6 cells/mouse). Treatment was started on day 33 after tumor cell injection when the tumors were established and continued on days 41 and 47. The doses for the 3 weekly injections were 0.02, 0.2 and 2 mg/kg body weight, given as a single bolus intravenous injection via lateral tail vein administered once a week for three weeks on days 33, 41 and 47. Necropsies were conducted on day 52. Data are presented as mean […]SEM. Arrows show dosing.
A group of 9 tumor bearing mice was sacrificed on day 33 and served as baseline group. All mice were necropsied 51-52 days after tumor cell injection. Tumor volumes and bodyweights were recorded twice weekly during the study, as well as overall veterinarian examination of mice was conducted.
Primary tumors, liver, kidney, pancreas, heart, lung, and spleen were collected, fixed in formalin and prepared for histological evaluation. Tumor weights were measured at necropsy, part of the tumors were frozen at −80° C. for LH/CG and LHRH receptor assay determination.
As a biomarker for drug activity, CA 125 was determined in serum, collected from each individual mouse at necropsy using a Enzyme Linked Immunoassay for quantitative determination of ovarian cancer antigen CA125 (Assay kit Genway, Biotech, Inc. San Diego, CA, Catalog #40-052-115009, #BC-1013 according to the manufacturer).
LHRH receptor levels were assessed from formalin fixed tumors. Quantitative immunoperoxidase image analysis was conducted with the Ventana Image Analysis System (VIAS) adjunctive computer assisted image analysis system functionally connected to an interactive microscope (Axio Imager). The quantitative analysis was conducted with the program for quantification of Her2/neu receptor that included morphometric and colorimetric analysis. Receptor status results were reported as percentage of cells showing positive staining of the LHRH receptors under the following criteria: 0 non-immunoreactive, 1+: 1-25% positive, 2+: 26-50% positive, 3+: 51-75% positive cells.

[5] = test system: SKOV-3; assay: Cytotoxicity in SKOV-3 ovarian cancer cells; format: cell-based; conditions: SKOV-3 ovarian cancer cell line; read-out: IC50 in Human Cancer Cell Lines
Protocol: as §1, §2

[6] = test system: OVCAR-3; assay: Cytotoxicity in OVCAR-3 ovarian cancer cells; format: cell-based; conditions: OVCAR-3 ovarian cancer cell line; read-out: IC50 in Human Cancer Cell Lines
Protocol: as §1, §2

[7] = molecular target: T1, luteinizing hormone-releasing hormone receptor (LHRH-R), on murine cancer cell lines (mouse) (UniProt Q01776); assay: cell-based or functional assay
T1 sequence (looked up): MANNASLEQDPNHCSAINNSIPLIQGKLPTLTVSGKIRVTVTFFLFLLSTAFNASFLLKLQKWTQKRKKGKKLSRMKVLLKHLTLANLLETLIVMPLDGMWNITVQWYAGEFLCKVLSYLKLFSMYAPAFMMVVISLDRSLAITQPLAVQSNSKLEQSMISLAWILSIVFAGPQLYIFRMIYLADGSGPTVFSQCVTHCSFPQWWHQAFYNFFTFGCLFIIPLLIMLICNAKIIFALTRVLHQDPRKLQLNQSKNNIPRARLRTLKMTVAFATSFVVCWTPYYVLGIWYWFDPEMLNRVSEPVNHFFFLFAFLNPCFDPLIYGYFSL

[8] = molecular target: T2, luteinizing hormone-releasing hormone (LHRH) receptor, on human cancer cell lines (human) (UniProt P30968); assay: cell-based or functional assay
T2 sequence (looked up): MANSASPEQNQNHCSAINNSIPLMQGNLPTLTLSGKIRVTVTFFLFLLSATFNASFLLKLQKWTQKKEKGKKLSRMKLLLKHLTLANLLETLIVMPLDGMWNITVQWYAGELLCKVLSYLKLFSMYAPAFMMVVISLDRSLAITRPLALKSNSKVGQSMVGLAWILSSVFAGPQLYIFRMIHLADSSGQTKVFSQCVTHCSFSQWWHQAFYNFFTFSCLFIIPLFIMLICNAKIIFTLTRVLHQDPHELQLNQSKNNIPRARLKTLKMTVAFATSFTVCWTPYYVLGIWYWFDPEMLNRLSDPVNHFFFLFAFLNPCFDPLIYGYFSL

[9] = test system: MDA-MB-435S cells; conditions: reported; cited from earlier work

Compound Phor21-βCG-ala (323033) (peptide) has an IC50 of cytotoxicity, MDA-MB-435S.luc cells (carry CG receptors) [1] of 2.3 µM.

For N.N.[Cl][Pt][Cl] [Cisplatinum, reference compound], the IC50 [2] was 19.9 ± 1.4 µM, the IC50 [3] was 11.8 ± 0.16 µM and the tumor weights ([4]; OVCAR-3 xenograft at necropsy) was “not effective in reducing tumor weights”. The tumor volume [4] was “no reduction in tumor volume”, the tumor volume ([4]; listed as cisplatinum) was “tumor growth was observed” and the IC50 [5] was 321 ± 10 µM. For the same compound, the IC50 [6] was 184 µM.

Work on Phor18-LHRH (338613) (peptide) yielded an IC50 of cell viability, murine ovarian cancer cell lines, 72 hours [7] of 1 to 1.3 µM, an IC50 of cytotoxicity (CellTiter Glo), EMT-6 cells, 4 h [7] of 5.8 µM and an IC50 of cytotoxicity (CellTiter Glo), EMT-6 cells, 8 h [7] of 5.7 µM. It also gave an IC50 of cytotoxicity (CellTiter-Glo), 2C12 cells, 24 h [7] of 1.02 µM, an IC50 of cytotoxicity (CellTiter-Glo), ID8 cells, 24 h [7] of 1.37 µM and an IC50 of cytotoxicity (CellTiter-Glo), IF5 cells, 24 h [7] of 1.01 µM. The IC50 of cytotoxicity (CellTiter-Glo), IG10 cells, 24 h [7] was 1.03 µM, the IC50 of cytotoxicity (CellTiter-Glo), cell line printed as 242, 24 h [7] was 1.38 µM and the IC50 of cytotoxicity (MTT), MDA-MB-435S cells, 0.5 hour [8] was 1.2 µM. For the same compound, the IC50 of cytotoxicity (MTT), MDA-MB-435S cells, 1 hour [8] was 0.6 µM, the IC50 of cytotoxicity (MTT), OVCAR-3 cells, increasing incubation time, value 1 of 7 [8] was 6.7 µM and the IC50 of cytotoxicity (MTT), OVCAR-3 cells, increasing incubation time, value 2 of 7 [8] was 5.6 µM. It also gave an IC50 of cytotoxicity (MTT), OVCAR-3 cells, increasing incubation time, value 3 of 7 [8] of 5.3 µM, an IC50 of cytotoxicity (MTT), OVCAR-3 cells, increasing incubation time, value 4 of 7 [8] of 1.6 µM and an IC50 of cytotoxicity (MTT), OVCAR-3 cells, increasing incubation time, value 5 of 7 [8] of 1.5 µM. For the same compound, the IC50 of cytotoxicity (MTT), OVCAR-3 cells, increasing incubation time, value 6 of 7 [8] was 0.5 µM and the IC50 of cytotoxicity (MTT), OVCAR-3 cells, increasing incubation time, value 7 of 7 [8] was 0.5 µM.

For COc1cccc2c1C(=O)c1c(O)c3c(c(O)c1C2=O)C[C@@](O)(C(=O)CO)C[C@@H]3O[C@H]1C[C@H](N)[C@H](O)[C@H](C)O1 [doxorubicin], the “time to destroy human melanoma cells in vitro” value [9] is listed as 4 h.
